Values of other authors in patent US20170128542A1 (Albireo Pharma, Inc., priority 2015, published 2017).

Tests used:
[1] = not given; remark: listed apart in the source

## glucagon
other
  Onset of action after injection: 5 to 20 min
[1]; acidic solution (pH 2-4), within 24 hours at 37° C.
  Glucagon decomposed into degradation products: 5-70%
[1]; aqueous solution, pH 3 or less
  Aggregation in aqueous solutions of pH 3 or less: aggregate to form a gel within an hour
